In patent US8765444 (BOARD OF TRUSTEES OF THE UNIVERSITY OF ILLINOIS, dated 2014):

T1: TBK1 (as used in Example 6; construct not named) (Homo sapiens (Human), UniProt Q9UHD2 1-729)
T1 construct: also called HA-TBK1 (constructed, probably the one used)
T1 sequence: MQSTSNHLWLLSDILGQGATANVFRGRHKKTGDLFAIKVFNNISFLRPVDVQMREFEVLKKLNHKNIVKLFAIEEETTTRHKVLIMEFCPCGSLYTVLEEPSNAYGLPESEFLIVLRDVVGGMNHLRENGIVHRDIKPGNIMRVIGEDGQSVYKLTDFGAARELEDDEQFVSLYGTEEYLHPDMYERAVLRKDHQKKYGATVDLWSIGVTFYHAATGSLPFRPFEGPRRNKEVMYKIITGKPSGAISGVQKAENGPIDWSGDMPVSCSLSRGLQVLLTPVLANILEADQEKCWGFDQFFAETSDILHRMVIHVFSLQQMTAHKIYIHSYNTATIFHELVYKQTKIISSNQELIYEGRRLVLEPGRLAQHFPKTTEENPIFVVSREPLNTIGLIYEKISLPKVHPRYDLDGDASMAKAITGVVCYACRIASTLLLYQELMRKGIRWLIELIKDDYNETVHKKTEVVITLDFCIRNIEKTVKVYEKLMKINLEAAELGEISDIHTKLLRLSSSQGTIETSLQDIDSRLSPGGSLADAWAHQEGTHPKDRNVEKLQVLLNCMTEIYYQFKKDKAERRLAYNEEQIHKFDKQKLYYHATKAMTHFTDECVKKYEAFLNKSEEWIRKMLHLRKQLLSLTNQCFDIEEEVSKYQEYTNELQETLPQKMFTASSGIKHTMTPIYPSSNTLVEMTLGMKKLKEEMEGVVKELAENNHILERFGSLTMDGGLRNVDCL

B1: FLAG-γ134.5 N159 (other)
chain: MARRRRHRGPRRPRPPGPTGAVPTAQSQVTSTPNSEPAVRSAPAAAPPPPPASGPPPSCSLLLRQWLHVPESASDDDDDDDWPDSPPPEPAPEARPTAAAPRPRSPPPGAGPGGGANPSHPPSRPFRLPPRLALRLRVTAEHLARLRLRRAGGEGAPE
notes: Carboxyl-terminal domain deleted; the exact last residue (158 or 159) is uncertain
B2: FLAG-γ134.5 Δ72 (other)
chain: MARRRRHRGPRRPRPPGPTGAVPTAQSQVASDDDDDDDWPDSPPPEPAPEARPTAAAPRPRSPPPGAGPGGGANPSHPPSRPFRLPPRLALRLRVTAEHLARLRLRRAGGEGAPEPPATPATPATPATPATPATPATPATPATPATPARVRFSPHVRVRHLVVWASAARLARRGSWARERADRARFRRRVAEAEAVIGPCLGPEARARALARGAGPANSV
notes: Deletion 'encompassing amino acids 30 to 72'; the printed limits overlap with the neighbouring deletions, so the exact junction is uncertain
B3: FLAG-γ134.5 Δ30 (other)
chain: STPNSEPAVRSAPAAAPPPPPASGPPPSCSLLLRQWLHVPESASDDDDDDDWPDSPPPEPAPEARPTAAAPRPRSPPPGAGPGGGANPSHPPSRPFRLPPRLALRLRVTAEHLARLRLRRAGGEGAPEPPATPATPATPATPATPATPATPATPATPATPARVRFSPHVRVRHLVVWASAARLARRGSWARERADRARFRRRVAEAEAVIGPCLGPEARARALARGAGPANSV
notes: Deletion 'encompassing amino acids 1 to 30'

Each binder was assayed against T1, TBK1 (as used in Example 6; construct …) (assay: co-immunoprecipitation from transfected 293T cells).
B1: binds.
B2: binds.
B3: binds.
